Measurements: patent US20250066456A1 (NOVAVAX, published 2025)

How the values were obtained:
[1] = target: T1, BV2523 (recombinant CoV S glycoprotein, BA.2) (SARS-CoV-2, UniProt P0DTC2 14-1273); experiment: ELISA on coated rS
[2] = target: T2, BV2540 (recombinant CoV S glycoprotein, BA.5) (SARS-CoV-2, UniProt P0DTC2 14-1273); experiment: ELISA on coated rS
[3] = target: T3, BV2542 (recombinant CoV S glycoprotein, BA.2.12.1) (SARS-CoV-2, UniProt P0DTC2 14-1273); experiment: ELISA on coated rS
[4] = target: T4, RBD of a CoV S glycoprotein related to a CoV S glycoprotein from the SARS-CoV-2 omicron strain (SARS-CoV-2 omicron strain); experiment: BLI, RBD-His on Ni-NTA biosensor, antibody analyte
T4 construct: domain: RBD

[5] = target: BV2373 (recombinant CoV S glycoprotein, Prototype) (SARS-CoV-2, UniProt P0DTC2 14-1273); experiment: BLI, antibody on anti-mouse Fc biosensor, rS analyte
[6] = target: BV2425 (recombinant CoV S glycoprotein, Alpha) (SARS-CoV-2, UniProt P0DTC2 14-1273); experiment: as above
[7] = target: BV2438 (recombinant CoV S glycoprotein, Beta) (SARS-CoV-2, UniProt P0DTC2 14-1273); experiment: as above
[8] = target: BV2443 (recombinant CoV S glycoprotein, Gamma) (SARS-CoV-2, UniProt P0DTC2 14-1273); experiment: as above
[9] = target: BV2465 (recombinant CoV S glycoprotein, Delta) (SARS-CoV-2, UniProt P0DTC2 14-1273); experiment: as above
[10] = target: T5, BV2509 (recombinant CoV S glycoprotein, BA.1) (SARS-CoV-2, UniProt P0DTC2 14-1273); experiment: as above
[11] = target: T1, BV2523 (recombinant CoV S glycoprotein, …); experiment: as above
[12] = target: T2, BV2540 (recombinant CoV S glycoprotein, …); experiment: as above
[13] = target: T6, BV2541 (recombinant CoV S glycoprotein, BA.4) (SARS-CoV-2, UniProt P0DTC2 14-1273); experiment: as above
[14] = target: T3, BV2542 (recombinant CoV S glycoprotein, …); experiment: as above
[15] = target: T7, BV2561 (recombinant CoV S glycoprotein, BA.2.75) (SARS-CoV-2, UniProt P0DTC2 14-1273); experiment: as above
[16] = target: T8, BV2562 (recombinant CoV S glycoprotein, BA.4.6) (SARS-CoV-2, UniProt P0DTC2 14-1273); experiment: as above
[17] = target: T5, BV2509 (recombinant CoV S glycoprotein, …); experiment: hACE2 receptor inhibition ELISA on coated rS; competitor hACE2-His
[18] = target: T1, BV2523 (recombinant CoV S glycoprotein, …); experiment: as above
[19] = target: T2, BV2540 (recombinant CoV S glycoprotein, …); experiment: as above
[20] = target: T6, BV2541 (recombinant CoV S glycoprotein, …); experiment: as above
[21] = target: T3, BV2542 (recombinant CoV S glycoprotein, …); experiment: as above
[22] = target: T7, BV2561 (recombinant CoV S glycoprotein, …); experiment: as above
[23] = target: T8, BV2562 (recombinant CoV S glycoprotein, …); experiment: as above
[24] = target: BV2589 (recombinant CoV S glycoprotein, BQ.1.1) (SARS-CoV-2, UniProt P0DTC2 14-1273); experiment: as above

B1: 425.6 (antibody, V domains shown)
VH: VQLKQSGPSLVQPSQSLSITCTVSGFSLTSYGIHWVRQSPGKGLEWLGVIWRGGSTDYNAAFMSRLTITKDNSKSQVFFKMNSLQADDTAIYYCATHTEGDDVDYWGQGTSVTVSS
VL: QIVLTQSPAIMSVSPGEKVTMTCSASSTMSFMYWYQQKPGSSPRLLIYDTSNLASGVPVRFSGSGSGTSYSLTISRVEAEDAATYYCQQWNTYPLTFGAGTKLELKR
- EC50 [1]: 0.028 µg/mL
- EC50 [2]: 0.014 µg/mL
- EC50 [3]: 0.034 µg/mL
- Kd [4]: 4890 pM
- koff [4]: 0.00123 s⁻¹
- kon [4]: 272000 M⁻¹ s⁻¹
- Kd [5]: < 1 pM
- Kd [6]: < 1 pM
- Kd [7]: < 1 pM
- Kd [8]: < 1 pM
- Kd [9]: < 1 pM
- Kd [10]: 3.91 pM
- koff [10]: 1.54e-07 s⁻¹
- kon [10]: 41300 M⁻¹ s⁻¹
- Kd [11]: 3.69 pM
- koff [11]: 1.37e-07 s⁻¹
- kon [11]: 38200 M⁻¹ s⁻¹
- Kd [12]: 1.76 pM
- koff [12]: 1.5e-07 s⁻¹
- kon [12]: 85900 M⁻¹ s⁻¹
- Kd [13]: < 1 pM
- Kd [14]: 3.81 pM
- koff [14]: 1.51e-07 s⁻¹
- kon [14]: 40200 M⁻¹ s⁻¹
- Kd [15]: < 1 pM
- koff [15]: < 1e-07 s⁻¹
- kon [15]: 46900 M⁻¹ s⁻¹
- Kd [16]: < 1 pM
- IC50 [17]: > 3 µg/mL
- IC50 [18]: 0.032 µg/mL
- IC50 [19]: 0.028 µg/mL
- IC50 [20]: 0.037 µg/mL
- IC50 [21]: 0.028 µg/mL
- IC50 [22]: > 5 µg/mL
- IC50 [23]: 0.071 µg/mL
- IC50 [24]: > 3 µg/mL

B2: 35.13 (antibody, V domains shown)
VH: QVQLQQSGAELGKPGASVKLSCRASGYTFTRYYIYWVKQRPGQGLEWIGEINPSNGDTHFNEKFKTKATLTVDKSSSSAHIHLTSLTSEDSAVYYCSIHAYSFDFWGQGTTLTVSS
VL: EIQMTQSPSSMSASLGDRITITCQATQDIVKNLNWYQQKPGKPPSFLIYHATELAKGVPSRFSGSGSGSDYSLTISNLESEDFADYYCLQFYDFPFTFGAGTKLELKR
- EC50 [1]: 0.053 µg/mL
- EC50 [2]: 1.03 µg/mL
- EC50 [3]: 0.104 µg/mL
- Kd [4]: 1.93 pM
- kon [4]: 142000 M⁻¹ s⁻¹
- Kd [5]: 5.29 pM
- koff [5]: 1.67e-07 s⁻¹
- kon [5]: 33000 M⁻¹ s⁻¹
- Kd [6]: 3.22 pM
- Kd [7]: 15.2 pM
- koff [7]: 1.54e-07 s⁻¹
- kon [7]: 10500 M⁻¹ s⁻¹
- Kd [8]: 19.8 pM
- koff [8]: 1.7e-07 s⁻¹
- kon [8]: 9090 M⁻¹ s⁻¹
- Kd [9]: 3.73 pM
- koff [9]: 1.42e-07 s⁻¹
- kon [9]: 41900 M⁻¹ s⁻¹
- Kd [10]: 9.82 pM
- koff [10]: 1.52e-07 s⁻¹
- kon [10]: 15500 M⁻¹ s⁻¹
- Kd [11]: 8.43 pM
- koff [11]: 1.61e-07 s⁻¹
- kon [11]: 19100 M⁻¹ s⁻¹
- Kd [12]: 7.23 pM
- koff [12]: 1.21e-07 s⁻¹
- kon [12]: 17600 M⁻¹ s⁻¹
- Kd [13]: < 1 pM
- koff [13]: < 1e-07 s⁻¹
- kon [13]: 22700 M⁻¹ s⁻¹
- Kd [14]: 7.87 pM
- koff [14]: 1.14e-07 s⁻¹
- kon [14]: 15000 M⁻¹ s⁻¹
- Kd [15]: 6.87 pM
- Kd [16]: < 1 pM
- koff [16]: < 1e-07 s⁻¹
- kon [16]: 38500 M⁻¹ s⁻¹
- IC50 [17]: 0.097 µg/mL
- IC50 [18]: 0.126 µg/mL
- IC50 [19]: > 3 µg/mL
- IC50 [20]: > 5 µg/mL
- IC50 [21]: 0.177 µg/mL
- IC50 [22]: 0.169 µg/mL
- IC50 [23]: > 5 µg/mL
- IC50 [24]: > 3 µg/mL

B3: 322.3 (antibody, V domains shown)
VH: RVQLQQSGPELVKPGASVTISCKASGYIFTSDYIHWVKQRPGQGPEWIGWIYPGNINTKYNEKFKGKATLTADKSSSTAYMQLSSLTSEDSAVYFCARDDGNLYYYAMDYWGQGTSVTVSS
VL: NIVLTQSPASLAVSLGQRATISCRASESVDSYGSSFMHWYQQKPGQPPKLLIYLASNLESGVPARFSGSGSRTDFTLTIDPVEADDAATYYCQQNNEDPRTFGGGTKLEIK
- EC50 [1]: 0.195 µg/mL
- EC50 [2]: 0.045 µg/mL
- EC50 [3]: 0.225 µg/mL
- Kd [4]: 1.69 pM
- kon [4]: 138000 M⁻¹ s⁻¹
- Kd [5]: 57.1 pM
- Kd [6]: 78.7 pM
- Kd [7]: 6.48 pM
- koff [7]: 1.24e-07 s⁻¹
- kon [7]: 20100 M⁻¹ s⁻¹
- Kd [8]: 107 pM
- koff [8]: 1.26e-07 s⁻¹
- kon [8]: 1180 M⁻¹ s⁻¹
- Kd [9]: 78.7 pM
- Kd [10]: 87.4 pM
- Kd [11]: 40.5 pM
- Kd [12]: 13.2 pM
- koff [12]: 1.46e-07 s⁻¹
- kon [12]: 11100 M⁻¹ s⁻¹
- Kd [13]: < 1 pM
- Kd [14]: 41.5 pM
- koff [14]: 1.22e-07 s⁻¹
- kon [14]: 2690 M⁻¹ s⁻¹
- Kd [15]: 4.47 pM
- Kd [16]: < 1 pM
- IC50 [17]: 0.493 µg/mL
- IC50 [18]: 0.224 µg/mL
- IC50 [19]: 0.779 µg/mL
- IC50 [20]: 0.543 µg/mL
- IC50 [21]: 0.866 µg/mL
- IC50 [22]: > 5 µg/mL
- IC50 [23]: 0.411 µg/mL
- IC50 [24]: 0.265 µg/mL
